Results taken from paper PMC6628914.

Biological target: HIV-1 BaL envelope (Env, gp120-gp41) on HIV-1 BaL pseudovirions (HIV-1 BaL, Env clone BaL.01) (UniProt Q2MKA9)
Assay: two-color fluorescence correlation spectroscopy (FCS)

## mAb b12 (IgG), Alexa 647-labelled (antibody)
  percent of mAb virion-bound (slower diffusion coefficient): 42%
